# System: Escherichia coli TOP10
# Assay: shrunken log2 fold change of peptide-encoding DNA abundance (4.5 h post-induction vs induction); higher = less antimicrobial activity (less host growth inhibition)
# Settings: time post-induction: 4.5 h; library: site-saturation at positions 5, 18, 19, 20
# 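Further: peptides expressed intracellularly from a pBAD plasmid library in pooled LB shake-flask culture, induced with 0.3% L-arabinose, DNA abundance read by NGS, three biological replicates, DESeq2 with apeglm shrinkage.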
row,Sequence,shrunken log2 fold change
1,RRIRDRPPRLPRPRPRPDRCPRP,-0.149
2,RRIRERPPRLPRPRPRPWHKPRP,-0.236
3,RRIRGRPPRLPRPRPRPNSHPRP,0.285
4,RRIRFRPPRLPRPRPRPCGWPRP,0.42
5,RRIRNRPPRLPRPRPRPHYWPRP,-0.388
6,RRIRIRPPRLPRPRPRPCISPRP,-0.32
7,RRIRDRPPRLPRPRPRPWHNPRP,-0.144
8,RRIRPRPPRLPRPRPRPHTHPRP,-0.434
9,RRIRVRPPRLPRPRPRPIEVPRP,-0.141
10,RRIRERPPRLPRPRPRPMNPPRP,-0.488
11,RRIRIRPPRLPRPRPRPTDVPRP,-0.444
12,RRIRTRPPRLPRPRPRPHTMPRP,-0.406
13,RRIRGRPPRLPRPRPRPSCHPRP,0.175
14,RRIRMRPPRLPRPRPRPMGIPRP,-0.0393
15,RRIRERPPRLPRPRPRPWVWPRP,0.0922
16,RRIRVRPPRLPRPRPRPYDSPRP,-0.126
17,RRIRRRPPRLPRPRPRPFQIPRP,-0.325
18,RRIRLRPPRLPRPRPRPCAIPRP,-0.218
19,RRIRIRPPRLPRPRPRPSCEPRP,-0.17
20,RRIRIRPPRLPRPRPRPILEPRP,0.0083
21,RRIRQRPPRLPRPRPRPYVPPRP,-0.157
22,RRIRFRPPRLPRPRPRPKTFPRP,-0.18
23,RRIRRRPPRLPRPRPRPCVGPRP,-0.147
24,RRIRCRPPRLPRPRPRPCMLPRP,-0.758
25,RRIRLRPPRLPRPRPRPSGFPRP,-0.259

row,Sequence,shrunken log2 fold change
1,RRIRFRPPRLPRPRPRPVHIPRP,0.0681
2,RRIRWRPPRLPRPRPRPAIPPRP,0.332
3,RRIRSRPPRLPRPRPRPIRMPRP,-0.109
4,RRIRVRPPRLPRPRPRPTDGPRP,0.0478
5,RRIRPRPPRLPRPRPRPTFCPRP,0.0727
6,RRIRTRPPRLPRPRPRPTAAPRP,0.211
7,RRIRPRPPRLPRPRPRPCKEPRP,-0.0274
8,RRIRDRPPRLPRPRPRPKWVPRP,0.538
9,RRIRDRPPRLPRPRPRPPPNPRP,0.84
10,RRIRVRPPRLPRPRPRPGADPRP,0.163
11,RRIRRRPPRLPRPRPRPDSVPRP,7.52e-05
12,RRIRMRPPRLPRPRPRPCSWPRP,0.0611
13,RRIRIRPPRLPRPRPRPFSPPRP,-0.267
14,RRIRARPPRLPRPRPRPHDPPRP,0.402
15,RRIRWRPPRLPRPRPRPSTEPRP,0.0764
16,RRIRNRPPRLPRPRPRPIAMPRP,-0.0835
17,RRIRQRPPRLPRPRPRPRECPRP,0.147
18,RRIRERPPRLPRPRPRPHFPPRP,-0.151
19,RRIRRRPPRLPRPRPRPMVTPRP,0.247
20,RRIRCRPPRLPRPRPRPHVAPRP,-0.0172
21,RRIRTRPPRLPRPRPRPKTVPRP,-0.0654
22,RRIRARPPRLPRPRPRPEERPRP,1.11
23,RRIRYRPPRLPRPRPRPNIQPRP,-1.58
24,RRIRARPPRLPRPRPRPWKTPRP,-0.0874
25,RRIRKRPPRLPRPRPRPFMEPRP,-0.00271

row,Sequence,shrunken log2 fold change
1,RRIRSRPPRLPRPRPRPNFEPRP,-0.068
2,RRIRWRPPRLPRPRPRPLNSPRP,-0.107
3,RRIRVRPPRLPRPRPRPKCEPRP,0.0936
4,RRIRTRPPRLPRPRPRPRGVPRP,0.196
5,RRIRMRPPRLPRPRPRPEVMPRP,2.84
6,RRIRARPPRLPRPRPRPWFMPRP,-0.108
7,RRIRQRPPRLPRPRPRPACCPRP,0.162
8,RRIRSRPPRLPRPRPRPRKKPRP,0.362
9,RRIRFRPPRLPRPRPRPVHHPRP,-0.00203
10,RRIRIRPPRLPRPRPRPWNFPRP,-0.00674
11,RRIRKRPPRLPRPRPRPAGCPRP,0.702
12,RRIRRRPPRLPRPRPRPWAEPRP,2.36
13,RRIRRRPPRLPRPRPRPSNIPRP,-0.528
14,RRIRGRPPRLPRPRPRPQQLPRP,0.487
15,RRIRGRPPRLPRPRPRPLRMPRP,0.848
16,RRIRLRPPRLPRPRPRPRVRPRP,0.325
17,RRIRMRPPRLPRPRPRPQAWPRP,-0.0331
18,RRIRERPPRLPRPRPRPPNHPRP,-0.288
19,RRIRIRPPRLPRPRPRPPGRPRP,0.336
20,RRIRLRPPRLPRPRPRPWVQPRP,-0.118
21,RRIRNRPPRLPRPRPRPIYTPRP,-0.288
22,RRIRWRPPRLPRPRPRPHRFPRP,0.077
23,RRIRLRPPRLPRPRPRPECDPRP,-0.00082
24,RRIRFRPPRLPRPRPRPTTCPRP,-0.19
25,RRIRTRPPRLPRPRPRPMGPPRP,-0.114
